These results are taken from publication PMC10348947, “Catalytic antibodies in arrhythmogenic cardiomyopathy patients cleave desmoglein 2 and N-cadherin and impair cardiomyocyte cohesion” (Cellular and Molecular Life Sciences: CMLS, 2023).

This data set deals with the molecule itself. Nature of the data set: atomic force microscopy (cell-free force spectroscopy); the same Fc construct covalently linked via a PEG linker to the AFM tip and to the mica sheet; 37 °C; HBSS buffer; loading force 0.3 nN, contact delay 0.1 s, retraction velocity 1 µm/s; 1000 force-distance curves for the baseline trans-interaction probability, then 1 h with patient or control IgG (1:50).

B1: Recombinant human N-cadherin extracellular domain tagged with Fc fragment (N-CAD-Fc) (Fc fusion, UniProt P19022 160-724, looked up)
chain: DWVIPPINLPENSRGPFPQELVRIRSDRDKNLSLRYSVTGPGADQPPTGIFIINPISGQLSVTKPLDREQIARFHLRAHAVDINGNQVENPIDIVINVIDMNDNRPEFLHQVWNGTVPEGSKPGTYVMTVTAIDADDPNALNGMLRYRIVSQAPSTPSPNMFTINNETGDIITVAAGLDREKVQQYTLIIQATDMEGNPTYGLSNTATAVITVTDVNDNPPEFTAMTFYGEVPENRVDIIVANLTVTDKDQPHTPAWNAVYRISGGDPTGRFAIQTDPNSNDGLVTVVKPIDFETNRMFVLTVAAENQVPLAKGIQHPPQSTATVSVTVIDVNENPYFAPNPKIIRQEEGLHAGTMLTTFTAQDPDRYMQQNIRYTKLSDPANWLKIDPVNGQITTIAVLDRESPNVKNNIYNATFLASDNGIPPMSGTGTLQIYLLDINDNAPQVLPQEAETCETPDPNSINITALDYDIDPNAGPFAFDLPLSPVTIKRNWTITRLNGDFAQLNLKIKFLEAGIYEVPIIITDSGNPPKSNISILRVKVCQCDSNGDCTDVDRIVGAGLGTGA
notes: N-cadherin (N-CAD), human, extracellular domain-containing protein; The Western blot and cleavage assay used Sino Biological #11039-H03H, probably the same protein; The chain was covalently linked through a PEG linker to the AFM tip and the mica sheet; also called hN-CAD-Fc
Turning to B1, the binding result is on record as “binds”.
